Test [1] addresses cytosolic domain of yeast Tom70 (His-Tom70_(38–617)) (yeast (Saccharomyces cerevisiae)) (UniProt P07213). The test is described as follows: pull-down; purified His-Tom70cd (50 pmol per 100 μl) pre-bound to Ni-NTA beads, incubated 40 min at 30 °C with typically 7% (v/v) reticulocyte lysate containing the [35S]-labelled protein; 10 mM MOPS/KOH, 20 mM imidazole, 150 mM KCl, 1% BSA, pH 7.2; eluted with 1 M imidazole, SDS-PAGE, phosphorimager; in some samples the bead-bound Tom70cd was pretreated with NEM and washed before the lysate was added.

The target of test [2] is Tom70cd pretreated with N-ethylmaleimide (NEM) (yeast (Saccharomyces cerevisiae)) (UniProt P07213). The test is described as above.
Chain of Tom70cd pretreated with N-ethylmaleimide (NEM) (yeast (Saccharomyces cerevisiae)) (P07213 38-617): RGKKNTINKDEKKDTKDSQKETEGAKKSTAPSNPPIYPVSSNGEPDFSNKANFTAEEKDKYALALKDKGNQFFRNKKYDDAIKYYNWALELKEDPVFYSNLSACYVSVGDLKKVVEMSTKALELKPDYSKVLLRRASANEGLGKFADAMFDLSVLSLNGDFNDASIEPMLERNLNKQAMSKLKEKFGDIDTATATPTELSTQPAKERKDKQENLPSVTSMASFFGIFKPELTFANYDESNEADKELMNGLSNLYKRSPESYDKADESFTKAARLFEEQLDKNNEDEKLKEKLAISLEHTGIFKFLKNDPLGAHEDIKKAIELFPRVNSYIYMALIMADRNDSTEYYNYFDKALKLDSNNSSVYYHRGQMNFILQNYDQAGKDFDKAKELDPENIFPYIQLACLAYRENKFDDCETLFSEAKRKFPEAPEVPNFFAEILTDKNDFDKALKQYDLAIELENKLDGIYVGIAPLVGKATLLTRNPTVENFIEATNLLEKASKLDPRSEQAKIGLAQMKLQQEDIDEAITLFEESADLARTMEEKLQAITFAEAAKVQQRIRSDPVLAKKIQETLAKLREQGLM
Test [3] concerns the target Tom70 in the outer membrane of isolated yeast mitochondria (wild type) (S. cerevisiae (endogenous in isolated yeast mitochondria)) (UniProt P07213).

Chain of AAC_(Δpos) (AAC with all positively charged residues of the matrix loops exchanged against glycine) (P02723 whole entry, stated change not applied): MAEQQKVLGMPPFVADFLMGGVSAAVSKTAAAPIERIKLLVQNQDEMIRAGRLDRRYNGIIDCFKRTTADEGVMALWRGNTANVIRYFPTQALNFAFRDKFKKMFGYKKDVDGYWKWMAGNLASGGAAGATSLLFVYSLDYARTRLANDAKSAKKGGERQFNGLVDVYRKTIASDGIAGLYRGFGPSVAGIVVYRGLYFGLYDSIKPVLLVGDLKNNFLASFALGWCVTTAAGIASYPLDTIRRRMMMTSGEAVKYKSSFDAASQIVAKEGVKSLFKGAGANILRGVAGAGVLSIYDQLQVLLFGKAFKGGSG
Chain of cytosolic domain of yeast Tom70 (His-Tom70_(38–617)) (yeast (Saccharomyces cerevisiae)) (P07213 38-617): as the sequence (P07213 38-617) above
Chain of ADP/ATP carrier (AAC) of Neurospora crassa, wild type (P02723 whole entry): as the sequence (P02723 whole entry, stated change not applied) above
Chain of S. cerevisiae AAC2 (P18239 whole entry): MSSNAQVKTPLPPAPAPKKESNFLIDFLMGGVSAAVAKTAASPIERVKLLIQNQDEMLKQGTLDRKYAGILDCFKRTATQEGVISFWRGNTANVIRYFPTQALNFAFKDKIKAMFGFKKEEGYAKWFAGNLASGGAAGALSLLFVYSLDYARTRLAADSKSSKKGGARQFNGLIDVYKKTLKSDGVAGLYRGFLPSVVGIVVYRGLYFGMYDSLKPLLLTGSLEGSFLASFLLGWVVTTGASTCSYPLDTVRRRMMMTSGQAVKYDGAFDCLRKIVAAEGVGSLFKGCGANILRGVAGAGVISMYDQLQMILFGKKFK
Chain of Tom70 in the outer membrane of isolated yeast mitochondria (wild type) (S. cerevisiae (endogenous in isolated yeast mitochondria)) (P07213 whole entry): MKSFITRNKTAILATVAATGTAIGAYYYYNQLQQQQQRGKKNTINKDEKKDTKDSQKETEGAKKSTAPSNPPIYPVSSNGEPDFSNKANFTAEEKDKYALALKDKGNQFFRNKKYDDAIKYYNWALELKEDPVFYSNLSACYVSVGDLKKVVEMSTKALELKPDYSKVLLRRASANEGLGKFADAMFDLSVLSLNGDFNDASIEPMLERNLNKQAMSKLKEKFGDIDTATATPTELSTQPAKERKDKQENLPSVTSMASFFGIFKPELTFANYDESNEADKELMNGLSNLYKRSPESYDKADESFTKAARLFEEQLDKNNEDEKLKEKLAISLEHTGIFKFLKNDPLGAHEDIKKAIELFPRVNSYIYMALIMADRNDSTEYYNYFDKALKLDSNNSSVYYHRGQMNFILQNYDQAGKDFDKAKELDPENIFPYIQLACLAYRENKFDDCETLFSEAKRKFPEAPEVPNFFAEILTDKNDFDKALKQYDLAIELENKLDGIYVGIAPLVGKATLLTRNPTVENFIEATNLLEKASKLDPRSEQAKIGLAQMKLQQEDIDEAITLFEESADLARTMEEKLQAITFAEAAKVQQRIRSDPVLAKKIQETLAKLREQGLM

“AAC_(Δpos) (AAC with all positively charged residues of the matrix loops exchanged against glycine) (from UniProt P02723 1-313) (natural protein)”: the percent of the total radiolabelled protein bound in test [1] was in the range of 15 to 20%.

Turning to “ADP/ATP carrier (AAC) of Neurospora crassa, wild type (from UniProt P02723 1-313) (natural protein)”, the reduction of the binding efficiency against untreated Tom70cd in test [2] is 50%.

For the substance “S. cerevisiae AAC2 (from UniProt P18239 1-318) (natural protein)”, the decrease in binding of [35S]-AAC2 to isolated mitochondria containing wild type Tom70, pretreated with 2 mM NEM against untreated (Fig. 3f) in test [3] is 50%.

Source of the values: article PMC7596997.
